Molecular target: HIV coat protein gp120 (oligomannose bearing) (HIV (Human Immunodeficiency Virus), UniProt P04578 33-511, high-mannose-type N-glycans (oligomannose), sites not stated)
Test: MST; NT-647 labeled PFA held constant, serial dilution of gp120, in 0.1% PBST; 'effective' binding affinity
Conditions: both partners purified

B1: NT-647 labeled PFA (natural protein)
chain: MSKYAVANQWGGSSAPWHPGGTWVLGARDNQNVVAIEIKSGDGGKSFTGTMTYAGEGPIGFKAQRTGQNQYNVENQWGGNDAPWHPGGKWVIGGRDNQNVIALSVTSSDGGKNLSGTNTYANEGPIGFRGQIEVSHPQAPF
modifications: NT-647 fluorophore on amines (amine-reactive NT-647-NHS labelling kit)
With B1 the Kd was 4.1 ± 1.4 nM.
